Test results: patent publication US20240401071A1

Molecular target: Rubisco activase (Arabidopsis thaliana) (UniProt P10896)
Assay: GFP-bead immunoprecipitation of PRL-1-eGFP from Arabidopsis leaves, mass spectrometry (IPMS); interaction direct or indirect

UniProt P10896, sequence (P10896 59-474 limits assumed): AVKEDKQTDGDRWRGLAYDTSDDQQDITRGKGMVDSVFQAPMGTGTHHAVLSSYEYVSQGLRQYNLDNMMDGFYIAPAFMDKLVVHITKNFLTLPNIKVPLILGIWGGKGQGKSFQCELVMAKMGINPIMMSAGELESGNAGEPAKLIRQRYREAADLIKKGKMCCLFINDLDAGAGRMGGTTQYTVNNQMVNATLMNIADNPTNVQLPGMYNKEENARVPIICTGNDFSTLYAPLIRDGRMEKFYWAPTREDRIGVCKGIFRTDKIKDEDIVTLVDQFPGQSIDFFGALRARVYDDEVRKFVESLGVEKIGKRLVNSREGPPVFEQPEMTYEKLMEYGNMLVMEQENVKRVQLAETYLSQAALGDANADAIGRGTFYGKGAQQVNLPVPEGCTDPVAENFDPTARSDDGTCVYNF

- fold abundance in the dark versus light (co-precipitated protein): 4 fold
Substance: PRL-1-eGFP (C-terminal GFP fusion with PRL-1, ribulose bisphosphate carboxylase/oxygenase large subunit-related, Potri.012G062600)
